According to the supplement of paper PMC10567573:

B1: KLHL20 (parent)
chain: YQDMIYAVGGRDDTTELSSAERYN

Variants of: B1
Test: protein stability index of a GFP-peptide fusion (GPS, HEK-293T) (PSI 1-6); higher = more stable
Conditions: c terminus: a fixed tail appended
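Also: lentivirally expressed fusions sorted by FACS into six bins by GFP to DsRed ratio, PSI derived from sequencing read proportions per bin multiplied by bin number.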

Point of comparison: YQDMIYACGGRDDTTELSSAERYN [V8C], protein stability index 2.37. Against it:
- YQDMIYAVGGQDDTTELSSAERYN [R11Q] — higher, 2.75
- YQDMIYAVGGRADTTELSSAERYN [D12A] — lower, 2.33
- YQDMIYAVGGRCDTTELSSAERYN [D12C] — lower, 2.01
- YQDMIHAVGGRDDTTELSSAERYN [Y6H] — higher, 3.27
- YQDMIFAVGGRDDTTELSSAERYN [Y6F] — lower, 2.14
- YQDMIWAVGGRDDTTELSSAERYN [Y6W] — higher, 2.51
- YQDMIDAVGGRDDTTELSSAERYN [Y6D] — higher, 4.74
- YQDMIRAVGGRDDTTELSSAERYN [Y6R] — higher, 3.37
- YQDMIVAVGGRDDTTELSSAERYN [Y6V] — higher, 3.01
- YQDMIMAVGGRDDTTELSSAERYN [Y6M] — higher, 2.98
- YQDMIIAVGGRDDTTELSSAERYN [Y6I] — higher, 3.08
- YQDMIKAVGGRDDTTELSSAERYN [Y6K] — higher, 3.43
- YQDMISAVGGRDDTTELSSAERYN [Y6S] — higher, 3.88
- YQDMICAVGGRDDTTELSSAERYN [Y6C] — higher, 2.71
- YQDMIAAVGGRDDTTELSSAERYN [Y6A] — higher, 3.85
- YQDMITAVGGRDDTTELSSAERYN [Y6T] — higher, 3.94
- YQDMIPAVGGRDDTTELSSAERYN [Y6P] — higher, 3.41
- YQDMIQAVGGRDDTTELSSAERYN [Y6Q] — higher, 3.87
- YQDMINAVGGRDDTTELSSAERYN [Y6N] — higher, 3.98
- YQDMILAVGGRDDTTELSSAERYN [Y6L] — higher, 2.88
- YQDMIEAVGGRDDTTELSSAERYN [Y6E] — higher, 4.55
- YQDMIGAVGGRDDTTELSSAERYN [Y6G] — higher, 3.77
- YFDMIYAVGGRDDTTELSSAERYN [Q2F] — higher, 2.79
- YTDMIYAVGGRDDTTELSSAERYN [Q2T] — lower, 2.22
- YIDMIYAVGGRDDTTELSSAERYN [Q2I] — lower, 1.58
- YSDMIYAVGGRDDTTELSSAERYN [Q2S] — higher, 3.61
- YYDMIYAVGGRDDTTELSSAERYN [Q2Y] — higher, 3.17
- YLDMIYAVGGRDDTTELSSAERYN [Q2L] — higher, 2.85
- YWDMIYAVGGRDDTTELSSAERYN [Q2W] — higher, 2.87
- YHDMIYAVGGRDDTTELSSAERYN [Q2H] — higher, 2.83
- YKDMIYAVGGRDDTTELSSAERYN [Q2K] — higher, 4.2
- YGDMIYAVGGRDDTTELSSAERYN [Q2G] — higher, 3.28
- YNDMIYAVGGRDDTTELSSAERYN [Q2N] — higher, 4.27
- YVDMIYAVGGRDDTTELSSAERYN [Q2V] — lower, 1.96
- YPDMIYAVGGRDDTTELSSAERYN [Q2P] — higher, 3.58
- YMDMIYAVGGRDDTTELSSAERYN [Q2M] — higher, 3.03
- YRDMIYAVGGRDDTTELSSAERYN [Q2R] — higher, 3.6
- YQDMIYAMGGRDDTTELSSAERYN [V8M] — lower, 1.75
- YQDMIYAFGGRDDTTELSSAERYN [V8F] — lower, 1.87
- YQDMIYAYGGRDDTTELSSAERYN [V8Y] — lower, 2.09
- YQDMIYAQGGRDDTTELSSAERYN [V8Q] — higher, 2.6
- YQDMIYANGGRDDTTELSSAERYN [V8N] — higher, 2.81
- YQDMIYAIGGRDDTTELSSAERYN [V8I] — lower, 1.97
- YQDMIYAGGGRDDTTELSSAERYN [V8G] — higher, 2.81
- YQDMIYAAGGRDDTTELSSAERYN [V8A] — higher, 2.77
- YQDMIYASGGRDDTTELSSAERYN [V8S] — higher, 2.65
- YQDMIYAWGGRDDTTELSSAERYN [V8W] — lower, 1.94
- YQDMIYALGGRDDTTELSSAERYN [V8L] — lower, 1.86
- YQDMIYADGGRDDTTELSSAERYN [V8D] — higher, 3.45
- YQDMIYAKGGRDDTTELSSAERYN [V8K] — higher, 2.44
- YQDMIYAPGGRDDTTELSSAERYN [V8P] — higher, 2.79
- YQDMIYARGGRDDTTELSSAERYN [V8R] — higher, 2.52
- YQDMIYAHGGRDDTTELSSAERYN [V8H] — higher, 2.84
- YQDMIYATGGRDDTTELSSAERYN [V8T] — higher, 2.41
- YQDMIYAEGGRDDTTELSSAERYN [V8E] — higher, 3.38
- YQDAIYAVGGRDDTTELSSAERYN [M4A] — higher, 2.51
- YQDYIYAVGGRDDTTELSSAERYN [M4Y] — higher, 2.77
- YQDTIYAVGGRDDTTELSSAERYN [M4T] — higher, 3.15
- YQDLIYAVGGRDDTTELSSAERYN [M4L] — lower, 2.31
- YQDWIYAVGGRDDTTELSSAERYN [M4W] — higher, 2.85
- YQDKIYAVGGRDDTTELSSAERYN [M4K] — higher, 2.65
- YQDDIYAVGGRDDTTELSSAERYN [M4D] — higher, 3.48
- YQDQIYAVGGRDDTTELSSAERYN [M4Q] — higher, 2.66
- YQDEIYAVGGRDDTTELSSAERYN [M4E] — higher, 3.68
- YQDIIYAVGGRDDTTELSSAERYN [M4I] — higher, 2.4
- YQDSIYAVGGRDDTTELSSAERYN [M4S] — higher, 3.27
- YQDFIYAVGGRDDTTELSSAERYN [M4F] — lower, 1.84
- YQDPIYAVGGRDDTTELSSAERYN [M4P] — higher, 2.6
- YQDCIYAVGGRDDTTELSSAERYN [M4C] — higher, 2.68
- YQDNIYAVGGRDDTTELSSAERYN [M4N] — higher, 3.12
- YQDHIYAVGGRDDTTELSSAERYN [M4H] — higher, 2.55
- YQDGIYAVGGRDDTTELSSAERYN [M4G] — higher, 2.48
- YQDRIYAVGGRDDTTELSSAERYN [M4R] — higher, 2.75
- YQDVIYAVGGRDDTTELSSAERYN [M4V] — higher, 3.02
- YQDMIYFVGGRDDTTELSSAERYN [A7F] — lower, 1.69
- YQDMIYNVGGRDDTTELSSAERYN [A7N] — higher, 2.92
- YQDMIYTVGGRDDTTELSSAERYN [A7T] — lower, 2.27
- YQDMIYKVGGRDDTTELSSAERYN [A7K] — lower, 2.12
- YQDMIYYVGGRDDTTELSSAERYN [A7Y] — lower, 2.27
- YQDMIYRVGGRDDTTELSSAERYN [A7R] — lower, 1.76
- YQDMIYPVGGRDDTTELSSAERYN [A7P] — higher, 3.07
- YQDMIYHVGGRDDTTELSSAERYN [A7H] — higher, 2.42
- YQDMIYSVGGRDDTTELSSAERYN [A7S] — higher, 2.55
- YQDMIYIVGGRDDTTELSSAERYN [A7I] — lower, 1.8
- YQDMIYDVGGRDDTTELSSAERYN [A7D] — higher, 3.34
- YQDMIYLVGGRDDTTELSSAERYN [A7L] — lower, 2.01
- YQDMIYMVGGRDDTTELSSAERYN [A7M] — lower, 1.96
- YQDMIYQVGGRDDTTELSSAERYN [A7Q] — lower, 2.29
- YQDMIYVVGGRDDTTELSSAERYN [A7V] — lower, 2.16
- YQDMIYGVGGRDDTTELSSAERYN [A7G] — higher, 3.01
- YQDMIYWVGGRDDTTELSSAERYN [A7W] — higher, 2.92
- YQDMIYEVGGRDDTTELSSAERYN [A7E] — higher, 3.56
- YQDMIYCVGGRDDTTELSSAERYN [A7C] — lower, 2.17
